Source: US20090130131A1
Read-outs that look alike come from different tables or passages of the source.

Tests used:
[1] = target: Influenza split vaccine A/New Caledonia/20/99 (H1N1)
[2] = target: Influenza split vaccine B/Shanghai/361/2002
[3] = target: Influenza split vaccine A/New York/55/2004 (H3N2)
[4] = target: Influenza split vaccine A/New Caledonia/20/99 (H1N1); remark: listed apart in the source
[5] = target: Influenza split vaccine A/New Caledonia/20/99 (H1N1); remark: listed apart in the source

Synthetic AD vehicle SSF-28 (from UniProt P07988 201-260)
Coupling Ratio (%) [1]: 83%
Coupling Ratio (%) [2]: 87.9%
Coupling Ratio (%) [3]: 64.4%

Synthetic AD vehicle SSF-30 (from UniProt P07988 220-260)
Coupling Ratio (%) [4]: 91.3%

FGIPSSPVHLKRLLILKLLLLKILLLKLGALLIGL [Synthetic AD vehicle SSF-48]
Coupling Ratio (%) [5]: 66.3%

PVHLKRLLLLLLLLLLLLLLLL [Synthetic AD vehicle SSF-44]
Coupling Ratio (%) [5]: 72.8%

IPCCPVHLKRLKLLLLLLLLILLLILGALLMGL [Synthetic AD vehicle SSF-46]
Coupling Ratio (%) [5]: 76.2%

RMLPQLVCRLVLRCSMD [Synthetic AD vehicle SSF-24]
Coupling Ratio (%) [4]: 91.3%

KLLLLKLLLLKLLLLKLLLL [Synthetic AD vehicle SSF-45]
Coupling Ratio (%) [5]: 64.8%

FPIPLPYCWLCRALIKRIQAMIPKG [Synthetic AD vehicle SSF-14]
Coupling Ratio (%) [4]: 57%

GIPFFPVHLKRLKLLLLLLLLILLLILGALLIGL [Synthetic AD vehicle SSF-47]
Coupling Ratio (%) [5]: 86.9%
